{"source": "patent US12269859B2", "about": "“Synthetic immune receptors and methods of use thereof” (Angeles Therapeutics, Inc., priority 2016, dated 2025)", "molecules": {"B1": {"name": "012517-A12 (protein)", "chain": "MALPVTALLLPLALLLHAARPLEGKPIPNPLLGLDSTGSGEDLKNVFPPEVAVFEPSKAEIAHTQKATLVCLATGFYPDHVELSWWVNGKEVHSGVCTDPQPLKEQPALNDSRYCLSSRLRVSATFWQNPRNHFRCQVQFYGLSENDEWTQDRAKPVTQIVSAEAWGRADCGITSASYHQGVLSATILYEILLGKATLYAVLVSALVLMAMVKRKDSRGRAKRSGSGATNFSLLKQAGDVEENPGPTSMALPVTALLLPLALLLHAARPDIQMTQSPSSLSASVGDRVTITCKASQDVSTAVAWYQQKPGKAPKLLIYSASYRYTGVPDRFTGSGSGTDFTLTISSLQPEDFATYYCQQHYSTPPYTFGGGTKVEIKRGGGGSGGGGSGGGGSQVQLVQSGAEVKKPGASVKVSCKASGYAFSSSWMNWVRQAPGQGLEWIGRIYPGDGDTKYNGKFKGKATLTADKSTSTAYMELSSLRSEDTAVYYCARSTMIATGAMDYWGQGTLVTVSSTREQKLISEEDGSGIQNPDPAVYQLRDSKSSDKSVCLFTDFDSQTNVSQSKDSDVYITDKCVLDMRSMDFKSNSAVAWSNKSDFACANAFNNSIIPEDTFFPSSDVPCDVKLVEKSFETDTNLNFQNLSVIGFRILLLKVAGFNLLMTLRLWSSRAKRSGSGVKQTLNFDLLKLAGDVESNPGPSRGHMTEYKPTVRLATRDDVPRAVRTLAAAFADYPATRHTVDPDRHIERVTELQELFLTRVGLDIGKVWVADDGAAVAVWTTPESVEAGAVFAEIGPRMAELSGSRLAAQQQMEGLLAPHRPKEPAWFLATVGVSPDHQGKGLGSAVVLPGVEAAERAGVPAFLETSAPRNLPFYERLGFTVTADVEVPEGPRTWCMTRKPGA"}, "B2": {"name": "090116-L01 (protein)", "chain": "MALPVTALLLPLALLLHAARPLEGKPIPNPLLGLDSTGSGEDLKNVFPPEVAVFEPSKAEIAHTQKATLVCLATGFYPDHVELSWWVNGKEVHSGVCTDPQPLKEQPALNDSRYCLSSRLRVSATFWQNPRNHFRCQVQFYGLSENDEWTQDRAKPVTQIVSAEAWGRADCGITSASYHQGVLSATILYEILLGKATLYAVLVSALVLMAMVKRKDSRGRAKRSGSGATNFSLLKQAGDVEENPGPTSMALPVTALLLPLALLLHAARPDIVMTQSQKSMSTSVGDRVSITCKASQDVITGVAWYQQKPGQSPKLLIYSASYRYTGVPDRFTGSGSGTDFTFTISNVQAEDLAVYYCQQHYSTPLTFGAGTKLELKGGGGSGGGGSGGGGSQVQLQQPGAELVRPGASVKLSCKASGYSFTTYWMNWVKQRPGQGLEWIGMIHPSDSETRLNQKFKDKATLTVDKSSSTAYMQLSSPTSEDSAVYYCARSTMIATRAMDYWGQGTSVTVSSTREQKLISEEDGSGIQNPDPAVYQLRDSKSSDKSVCLFTDFDSQTNVSQSKDSDVYITDKCVLDMRSMDFKSNSAVAWSNKSDFACANAFNNSIIPEDTFFPSSDVPCDVKLVEKSFETDTNLNFQNLSVIGFRILLLKVAGFNLLMTLRLWSSRAKRSGSGVKQTLNFDLLKLAGDVESNPGPSRGHMTEYKPTVRLATRDDVPRAVRTLAAAFADYPATRHTVDPDRHIERVTELQELFLTRVGLDIGKVWVADDGAAVAVWTTPESVEAGAVFAEIGPRMAELSGSRLAAQQQMEGLLAPHRPKEPAWFLATVGVSPDHQGKGLGSAVVLPGVEAAERAGVPAFLETSAPRNLPFYERLGFTVTADVEVPEGPRTWCMTRKPGA", "modifications": "Synthetic Immune Receptor (SIR)"}, "B3": {"name": "091216-L03 (protein)", "chain": "MALPVTALLLPLALLLHAARPLEGKPIPNPLLGLDSTGSGEDLKNVFPPEVAVFEPSKAEIAHTQKATLVCLATGFYPDHVELSWWVNGKEVHSGVCTDPQPLKEQPALNDSRYCLSSRLRVSATFWQNPRNHFRCQVQFYGLSENDEWTQDRAKPVTQIVSAEAWGRADCGITSASYHQGVLSATILYEILLGKATLYAVLVSALVLMAMVKRKDSRGRAKRSGSGATNFSLLKQAGDVEENPGPTSTMALPVTALLLPLALLLHAARPDIQMTQSPSSLSASVGDRVTITCKASQDVGIAVAWYQQKPGKVPKLLIYWASTRHTGVPDRFSGSGSGTDFTLTISSLQPEDVATYYCQQYSSYPYTFGQGTKVEIKGGGGSGGGGSGGGGSEVQLVESGGGLVQPGGSLRLSCAASGFDFSRYWMSWVRQAPGKGLEWIGEINPDSSTINYAPSLKDKFIISRDNAKNSLYLQMNSLRAEDTAVYYCARPDGNYWYFDVWGQGTLVTVSSTREQKLISEEDGSGIQNPDPAVYQLRDSKSSDKSVCLFTDFDSQTNVSQSKDSDVYITDKCVLDMRSMDFKSNSAVAWSNKSDFACANAFNNSIIPEDTFFPSSDVPCDVKLVEKSFETDTNLNFQNLSVIGFRILLLKVAGFNLLMTLRLWSSRAKRSGSGVKQTLNFDLLKLAGDVESNPGPSRGHMTEYKPTVRLATRDDVPRAVRTLAAAFADYPATRHTVDPDRHIERVTELQELFLTRVGLDIGKVWVADDGAAVAVWTTPESVEAGAVFAEIGPRMAELSGSRLAAQQQMEGLLAPHRPKEPAWFLATVGVSPDHQGKGLGSAVVLPGVEAAERAGVPAFLETSAPRNLPFYERLGFTVTADVEVPEGPRTWCMTRKPGA", "modifications": "Synthetic Immune Receptor (SIR)"}, "B4": {"name": "012517-P12 (protein)", "chain": "MALPVTALLLPLALLLHAARPLEGKPIPNPLLGLDSTGSGEDLKNVFPPEVAVFEPSKAEIAHTQKATLVCLATGFYPDHVELSWWVNGKEVHSGVCTDPQPLKEQPALNDSRYCLSSRLRVSATFWQNPRNHFRCQVQFYGLSENDEWTQDRAKPVTQIVSAEAWGRADCGITSASYHQGVLSATILYEILLGKATLYAVLVSALVLMAMVKRKDSRGRAKRSGSGATNFSLLKQAGDVEENPGPTSMALPVTALLLPLALLLHAARPDIVMTQSHKFMSTSVGDRVSITCKASQDVSTAVAWYQQKPGQSPKLLIYSASYRYTGVPDRFTGSGSGTDFTFTISSVQAEDLAVYYCQQHYSTPPYTFGGGTKLEIKGGGGSGGGGSGGGGSQVQLQQSGPELVKPGASVKISCKASGYAFSSSWMNWVKQRPGQGLEWIGRIYPGDGDTKYNGKFKGKATLTADKSSSTAYMQLSSLTSVDSAVYFCARSTMIATGAMDYWGQGTSVTVSSTREQKLISEEDGSGIQNPDPAVYQLRDSKSSDKSVCLFTDFDSQTNVSQSKDSDVYITDKCVLDMRSMDFKSNSAVAWSNKSDFACANAFNNSIIPEDTFFPSSDVPCDVKLVEKSFETDTNLNFQNLSVIGFRILLLKVAGFNLLMTLRLWSSRAKRSGSGVKQTLNFDLLKLAGDVESNPGPSRGHMTEYKPTVRLATRDDVPRAVRTLAAAFADYPATRHTVDPDRHIERVTELQELFLTRVGLDIGKVWVADDGAAVAVWTTPESVEAGAVFAEIGPRMAELSGSRLAAQQQMEGLLAPHRPKEPAWFLATVGVSPDHQGKGLGSAVVLPGVEAAERAGVPAFLETSAPRNLPFYERLGFTVTADVEVPEGPRTWCMTRKPGA"}, "B5": {"name": "012517-B12 (protein)", "chain": "MALPVTALLLPLALLLHAARPLEGKPIPNPLLGLDSTGSGEDLKNVFPPEVAVFEPSKAEIAHTQKATLVCLATGFYPDHVELSWWVNGKEVHSGVCTDPQPLKEQPALNDSRYCLSSRLRVSATFWQNPRNHFRCQVQFYGLSENDEWTQDRAKPVTQIVSAEAWGRADCGITSASYHQGVLSATILYEILLGKATLYAVLVSALVLMAMVKRKDSRGRAKRSGSGATNFSLLKQAGDVEENPGPTSMALPVTALLLPLALLLHAARPDVVMTQTPLSLSVTPGQPASISCRSSQSLVHNNGNTYLHWYLQKPGQSPQLLIYKVSNRFSGVPDRFSGSGSGTDFTLKISRVEAEDVGVYFCSQSTHVPPYTFGGGTKVEIKGGGGSGGGGSGGGGSEVQLVESGGGLVQPGGSLRLSCAASGFTFSDYYMAWVRQAPGKGLEWVAEINYDGSSTYYVDSVKGRFTISRDNAKNSLYLQMNSLRAEDTAVYYCARDRGFYFDYWGQGTTVTVSSTREQKLISEEDGSGIQNPDPAVYQLRDSKSSDKSVCLFTDFDSQTNVSQSKDSDVYITDKCVLDMRSMDFKSNSAVAWSNKSDFACANAFNNSIIPEDTFFPSSDVPCDVKLVEKSFETDTNLNFQNLSVIGFRILLLKVAGFNLLMTLRLWSSRAKRSGSGVKQTLNFDLLKLAGDVESNPGPSRGHMTEYKPTVRLATRDDVPRAVRTLAAAFADYPATRHTVDPDRHIERVTELQELFLTRVGLDIGKVWVADDGAAVAVWTTPESVEAGAVFAEIGPRMAELSGSRLAAQQQMEGLLAPHRPKEPAWFLATVGVSPDHQGKGLGSAVVLPGVEAAERAGVPAFLETSAPRNLPFYERLGFTVTADVEVPEGPRTWCMTRKPGA"}, "B6": {"name": "110116-L01 (protein)", "chain": "MALPVTALLLPLALLLHAARPLEQKLISEEDLGSGDRPDPAVYQLRDSKSSDKSVCLFTDFDSQTNVSQSKDSDVYITDKCVLDMRSMDFKSNSAVAWSNKSDFACANAFNNSIIPEDTFFPSPESSCDVKLVEKSFETDTNLNFQNLSVIGFRILLLKVAGFNLLMTLRLWSSSSRAKRSGSGVKQTLNFDLLKLAGDVESNPGPTSMALPVTALLLPLALLLHAARPDIVMTQSQKSMSTSVGDRVSITCKASQDVITGVAWYQQKPGQSPKLLIYSASYRYTGVPDRFTGSGSGTDFTFTISNVQAEDLAVYYCQQHYSTPLTFGAGTKLELKGGGGSGGGGSGGGGSQVQLQQPGAELVRPGASVKLSCKASGYSFTTYWMNWVKQRPGQGLEWIGMIHPSDSETRLNQKFKDKATLTVDKSSSTAYMQLSSPTSEDSAVYYCARSTMIATRAMDYWGQGTSVTVSSTRGKPIPNPLLGLDSTGSGEDLKNVFPPEVAVFEPSEAEISHTQKATLVCLATGFYPDHVELSWWVNGKEVHSGVCTDPQPLKEQPALNDSRYCLSSRLRVSATFWQNPRNHFRCQVQFYGLSENDEWTQDRAKPVTQIVSAEAWGRADCGFTSESYQQGVLSATILYEILLGKATLYAVLVSALVLMAMVKRKDSRGRAKRSGSGATNFSLLKQAGDVEENPGPSRGHMTEYKPTVRLATRDDVPRAVRTLAAAFADYPATRHTVDPDRHIERVTELQELFLTRVGLDIGKVWVADDGAAVAVWTTPESVEAGAVFAEIGPRMAELSGSRLAAQQQMEGLLAPHRPKEPAWFLATVGVSPDHQGKGLGSAVVLPGVEAAERAGVPAFLETSAPRNLPFYERLGFTVTADVEVPEGPRTWCMTRKPGA", "modifications": "Synthetic Immune Receptor (SIR)"}}, "system": "target antigen-expressing cell line", "test": "Jurkat NFAT-GFP assay, coculture with target cell lines expressing the respective target antigen (summary Table 10A)", "format": "cell-based, human", "design": "key: The signs +/−, +, 2+ etc. after the name of the cell lines indicate the relative degree of positivity on the Jurkat-NFAT-GFP assay as measured by the % GFP positive cells; +: relative degree of positivity on the Jurkat-NFAT-GFP assay as measured by the % GFP positive cells; 2+: relative degree of positivity on the Jurkat-NFAT-GFP assay as measured by the % GFP positive cells", "outline": "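Readout is % GFP+ cells by FACS, graded +/− to 2+ relative to parental reporter cells. Jurkat-NFAT-GFP cells stably transduced with SIR constructs (puromycin-selected) were mixed with target-antigen-expressing cell lines at roughly 1:2 effector:target and cocultured ~4–18 h.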", "data": [{"molecule": "B1", "values": [{"measurement": "NFAT-GFP ASSAY Positive Cell lines", "setting": "coculture with L363 cells", "value": "(+)"}, {"measurement": "NFAT-GFP ASSAY Positive Cell lines", "setting": "coculture with U266 cells", "value": "U266 (+/−), L363"}]}, {"molecule": "B2", "values": [{"measurement": "NFAT-GFP ASSAY Positive Cell lines", "setting": "coculture with L363 cells", "value": "(+)"}, {"measurement": "NFAT-GFP ASSAY Positive Cell lines", "setting": "coculture with U266 cells", "value": "U266 (+/−), L363"}]}, {"molecule": "B3", "values": [{"measurement": "NFAT-GFP ASSAY Positive Cell lines", "setting": "coculture with L363 cells", "value": "U266 (+), L363 (+)"}, {"measurement": "NFAT-GFP ASSAY Positive Cell lines", "setting": "coculture with U266 cells", "value": "U266 (+), L363 (+)"}]}, {"molecule": "B4", "values": [{"measurement": "NFAT-GFP ASSAY Positive Cell lines", "setting": "coculture with L363 cells", "value": "(+/−)"}, {"measurement": "NFAT-GFP ASSAY Positive Cell lines", "setting": "coculture with U266 cells", "value": "U266 (+/−), L363"}]}, {"molecule": "B5", "values": [{"measurement": "NFAT-GFP ASSAY Positive Cell lines", "setting": "coculture with L363 cells", "value": "+"}, {"measurement": "NFAT-GFP ASSAY Positive Cell lines", "setting": "coculture with U266 cells", "value": "2+"}]}, {"molecule": "B6", "values": [{"measurement": "NFAT-GFP ASSAY Positive Cell lines", "setting": "coculture with L363 cells", "value": "U266 (+), L363 (+)"}, {"measurement": "NFAT-GFP ASSAY Positive Cell lines", "setting": "coculture with U266 cells", "value": "U266 (+), L363 (+)"}]}]}
